Measured values taken from patent US11839630B2, “CAR-T cells targeting IL-1RAP and their use” (ETABLISSEMENT FRANCAIS DU SANG, priority 2017, dated 2023).

Tests used:
HSCs = experiment: IL-1RAP cell surface staining of healthy HSCs; type: binding, human
Experimental: FIG. 23: Effect of IL-1RAP CAR T cells on healthy hematopoietic cells and efficiency of the safety suicide gene iCASP9 cassette. (A) IL-1RAP cell surface expression on peripheral blood (left) or bone marrow (right) cells from healthy donors (n=5). SSC-A/CD45+ allowed discrimination of subpopulations as lymphocytes (SSC-A low), monocytes (CD33+), granulocytes (SSC-A high), or HSCs (CD33−/CD34+). RFI was calculated from isotype staining and provided in each window. (B) Representative (1 of 3) IL-1RAP staining of whole human cord blood cells. IL-1RAP staining is provided for whole CD34+, CD34+/CD38−, and CD34+/CD38+ HSC cord blood subpopulations. […] Percentages were calculated using absolute cell number determined using Trucount™ tubes based on 5000 fluorescent-bead cytometry acquisition. […] The quantification was performed after acquiring 5000 fluorescent beads. […] Cell killing was calculated as follows: % Dead cells=[1−(absolute number of viable cells in AP1903-treated cells/absolute number of viable cells in untreated cells)]×100. […] (G) Absolute quantification of IL-1RAP CAR T cells injected in a tumor (CML KU812, i.v.) xenograft NSG model 24 h after i.p. AP1903 (white bars) treatment (n=3 mice/group). […]

IL-1RAP = biological target: T1, IL-1RAP (Homo sapiens, UniProt Q9NPH3); experiment: Confocal microscopy on KU812 and Raji cell lines; type: binding; settings: KU812 cells
T1 sequence (Q9NPH3 21-570): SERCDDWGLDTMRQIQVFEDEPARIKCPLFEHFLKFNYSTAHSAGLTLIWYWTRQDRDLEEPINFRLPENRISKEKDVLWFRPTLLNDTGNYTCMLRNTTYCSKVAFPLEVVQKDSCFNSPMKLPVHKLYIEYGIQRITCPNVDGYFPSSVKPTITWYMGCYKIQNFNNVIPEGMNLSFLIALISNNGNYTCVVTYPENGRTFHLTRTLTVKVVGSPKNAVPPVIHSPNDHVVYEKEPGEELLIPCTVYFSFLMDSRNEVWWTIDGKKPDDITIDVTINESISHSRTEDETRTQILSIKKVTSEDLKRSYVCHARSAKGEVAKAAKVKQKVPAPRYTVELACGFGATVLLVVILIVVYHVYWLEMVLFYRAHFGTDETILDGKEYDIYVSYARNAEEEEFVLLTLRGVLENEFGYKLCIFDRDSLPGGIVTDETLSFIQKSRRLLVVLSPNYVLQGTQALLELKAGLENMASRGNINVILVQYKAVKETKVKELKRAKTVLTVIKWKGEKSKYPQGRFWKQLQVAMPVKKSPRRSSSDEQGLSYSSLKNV
Experimental: FIG. 4: KU812 (a) and Raji cells lines (b) stained with Fluorescence mAbs [(left panel: anti murine Fc-IgG; medium panel: IL-1RAP (#E3C3)]. Counterstaining was performed by nuclear stain DAPI and superposed to Fluorescent staining (right panel, merge).
Confocal microscopy was assessed on KU812 and Raji cells lines concentrated on slides (Superfrost™ Plus, 4951PLUS4, ThermoFisher Scientific) by Cytospin. Briefly, the cells were stained with Fluorescent monoclonal antibodies: anti murine Fc-IgG; IL-1RAP (#E3C3) and were analyzed with an Olympus BX51 microscope equipped with a QImaging Retiga 2000R camera. Digital images were acquired using the 40× objective and digitalized with Image-Pro Plus (version 6.0, Media Cybernetics). Counterstaining was performed by nuclear stain DAPI (2-(4-Amidinophenyl)-6-indolecarbamidine dihydrochloride, Sigma-Aldrich-France) and superposed to fluorescent staining.

[1] = system: IL-1RAP+ leukemia expressing stem cells CD34+CD38+ or CD34+CD38-; experiment: Flow cytometry immunophenotyping of primary cells from CML patients; type: binding, human; settings: bone marrow or peripheral blood of patient at diagnosis or after 12 months of Imatinib
Text: FIG. 3: Immunophenotyping on peripheral blood (PM) or bone marrow (BM) of 2 CML positive patients at diagnosis (Diag) or after Imatinib (IM) treatment. IL-1RAP (#E3C3) was used in combination with CD34+ and CD38− fluorescent staining. Fluorochrome-conjugated isotype control mAbs from the different mAbs were systematically used.
Hematopoietic stem cells from CML patients were tracked using a panel of CD45, CD34, CD38, CD33, CD133, CD117 including murine Alexa Fluor® 488 labelled IL-1RAP antibody clone #E3C3. Transduced cells were stained using a panel of antibodies including CD3, CD4, CD8, and CD19 in order to differentiate helper or cytotoxic GMTC. Naïve, central or memory T cells subsets were analyzed using a panel of CD45RA, CD62L, CD95, CCR7 monoclonal antibodies. Cells were collected using a FACSCANTO™ II cytometer (BD Biosciences, Le Pont de Claix, France) and analyzed using the DIVA 6.1 software (BD Biosciences, Le Pont de Claix, France).
Immunophenotyping on peripheral blood or bone marrow of 2 CML-positive patients without or after Imatinib (TKI) treatment has been performed. IL-1RAP (#E3C3) was used in combination with CD34^+ and CD38^− fluorescent staining. Fluorochrome-conjugated isotype control monoclonal antibodies from the different monoclonal antibodies were systematically used.

B1: #E3C3: mouse anti-hIL-1RAP monoclonal antibody subclone generated by standard hybridoma technique; VH SEQ ID NO: 2, VL SEQ ID NO: 4 (antibody, V domains shown)
VH: MGWSCIILFLVATATGVNSQVQLQQPGAELMMPGASVKVSCEASGYTFTDSWMHWVKQRPGQGLEWIGAIDPSDSYTTYNQKFTGKATLSVDESSNTAYMQLSSLTSEDSAVYYCARYYSGSNYISPFPYWGQGTLVTVSA
VL: MESQIQVFVFVFLWLSGVDGDIVMTQSHKFMSTSVGDRVTITCKASLDVSTAVAWYQQKPGQSPKLLIYSASYRYTGVPDRFTGSGSGTDFTFTISSVQAEDLAVYYCQQHYSPPFTFGSGTNLEIK
modifications: Amino acid sequence of chain H (VH) of murine scFv anti-IL-1RAP; Amino acid sequence of chain K (VL) of murine scFv anti-IL-1RAP
detection of HSCs (HSCs; bone marrow from healthy donors or normal cord blood): did not detect | RFI of HSC staining (HSCs; bone marrow from healthy donors, n=5): < 1.2 | staining pattern by confocal microscopy (IL-1RAP): cell membrane staining | discrimination of IL-1RAP+ stem cell subpopulations [1]: allowed to discriminate IL-1RAP+ leukemia expressing stem cells
